Measured values published in patent US5516515A, “Separation of alpha interferon receptor proteins and antibodies therefor” (priority 1990, dated 1996).

Assays:
[1] = tested on: human HEp-2 cells challenged with vesticular stomatitis virus (Indiana Strain); test: cytopathic effect (CPE) assay of interferon biological (antiviral) activity; type: cell-based; settings: NIH reference units
Experimental: Ultrapure natural interferon alpha was prepared by incubating human peripheral blood cultures with Sendai virus. The culture supernatant was purified over an anti-interferon alpha column (NK-2 sepharose). […] The biological activity of interferons alpha, beta and gamma were determined by the cytopathic effect (CPE) assay on human HEp-2 cells challenged with vesticular stomatitis virus (Indiana Strain). All titers were calibrated against the NIH reference standards for alpha (#Ga23-902-503) and gamma (Gg 23-901-530) interferons. All titers are expressed as NIH reference units.

[2] = biological target: T1, Daudi cell receptor sites (Homo sapiens, UniProt P17181+P48551); test: Competition experiments: displacement of 125I-IFN-alpha-2 from Daudi cells; type: binding; settings: 100 fold excess of unlabeled IFN
T1 construct: endogenous in cells; host or cells: Daudi (human lymphoblastoid) cells
T1 sequence (P48551 27-515): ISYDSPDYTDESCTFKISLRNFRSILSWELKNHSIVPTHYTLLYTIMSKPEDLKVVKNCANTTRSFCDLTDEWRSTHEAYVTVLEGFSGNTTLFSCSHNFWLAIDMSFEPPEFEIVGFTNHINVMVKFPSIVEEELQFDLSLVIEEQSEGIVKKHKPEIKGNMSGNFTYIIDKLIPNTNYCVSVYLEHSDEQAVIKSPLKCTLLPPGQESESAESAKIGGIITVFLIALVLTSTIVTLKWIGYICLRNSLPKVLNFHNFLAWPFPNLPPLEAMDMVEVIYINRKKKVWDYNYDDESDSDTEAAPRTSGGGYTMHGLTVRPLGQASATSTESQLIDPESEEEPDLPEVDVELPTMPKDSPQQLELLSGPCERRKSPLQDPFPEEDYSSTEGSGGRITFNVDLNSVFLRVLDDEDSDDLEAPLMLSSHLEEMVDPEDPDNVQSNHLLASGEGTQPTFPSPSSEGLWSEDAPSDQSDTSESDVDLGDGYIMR
T1 sequence (P17181 28-557): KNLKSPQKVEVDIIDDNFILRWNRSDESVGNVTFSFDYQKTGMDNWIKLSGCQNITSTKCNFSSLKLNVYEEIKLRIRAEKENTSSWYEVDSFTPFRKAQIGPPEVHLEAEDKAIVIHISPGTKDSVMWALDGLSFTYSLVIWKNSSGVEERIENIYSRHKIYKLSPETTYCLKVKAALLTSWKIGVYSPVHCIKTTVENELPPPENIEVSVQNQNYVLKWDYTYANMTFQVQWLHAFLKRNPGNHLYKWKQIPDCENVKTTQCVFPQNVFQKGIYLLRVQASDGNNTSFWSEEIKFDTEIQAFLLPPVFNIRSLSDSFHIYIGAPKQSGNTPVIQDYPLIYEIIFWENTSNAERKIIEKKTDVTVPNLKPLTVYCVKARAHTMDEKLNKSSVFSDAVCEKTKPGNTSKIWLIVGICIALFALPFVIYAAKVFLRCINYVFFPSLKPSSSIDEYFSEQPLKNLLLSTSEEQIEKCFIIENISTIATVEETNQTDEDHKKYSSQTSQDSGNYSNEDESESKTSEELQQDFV

B1: IFN gamma: Human IFN gamma produced in human peripheral blood cultures containing lymphocytes stimulated with phytohemagglutinin, purified by affinity chromatography (protein, UniProt P01579 24-161, looked up)
Interferon gamma: QDPYVKEAENLKKYFNAGHSDVADNGTLFLGILKNWKEESDRKIMQSQIVSFYFKLFKNFKDDQSIQKSVETIKEDMNVKFFNSNKKKRDDFEKLTNYSVTDLNVQRKAIHELIQVMAELSPAAKTGKRKRSQMLFRG
With B1 the specific activity [1] was 2×10^7 U/rag of protein and the “reduction in the binding of 125I-IFN-alpha2 for Daudi cells” value [2] was “does not compete”.
